In patent publication US20050255104A1 one finds IL-6 secreted by FS-4 fibroblasts, 0.3 ng/ml rhTNF with 4 µg/ml antibody, IL-6 secreted by FS-4 fibroblasts, 1.5 ng/ml rhTNF with 4 µg/ml antibody and IL-6 secreted by FS-4 fibroblasts, 7.5 ng/ml rhTNF with 4 µg/ml antibody data, which are given here for 1 molecule.

This assay deals with human tumor necrosis factor-α (TNFα) (human) (UniProt P01375). The assay is described as follows: cell-based or functional assay.
Sequence of human tumor necrosis factor-α (TNFα) (human) (P01375 77-233 limits assumed): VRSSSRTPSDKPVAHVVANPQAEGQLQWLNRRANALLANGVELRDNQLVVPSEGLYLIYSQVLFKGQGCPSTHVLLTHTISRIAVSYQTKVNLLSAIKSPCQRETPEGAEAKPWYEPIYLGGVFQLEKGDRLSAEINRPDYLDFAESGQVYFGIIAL

B1: chimeric mouse/human IgG1 anti-platelet mAb (7E3) (antibody, INN chains, looked up, V domains shown)
VH: EVQLQQSGTVLARPGASVKMSCEASGYTFTNYWMHWVKQRPGQGLEWIGAIYPGNSDTSYIQKFKGKAKLTAVTSTTSVYMELSSLTNEDSAVYYCTLYDGYYVFAYWGQGTLVTVSA
VL: EIVLTQSPVTLSVTPGDSVSLSCRASRDISNNLHWFQQTSHESPRLLIKYASQSMSGIPSRFSGSGSGTDFTLSINSVETEDFGMYFCQQTNSWPYTFGGGTKLEIK
modifications: full IgG1
In turn, B1 returned an IL-6 secreted by FS-4 fibroblasts, 0.3 ng/ml rhTNF with 4 µg/ml antibody of 1.6 ng/mL; an IL-6 secreted by FS-4 fibroblasts, 1.5 ng/ml rhTNF with 4 µg/ml antibody of 1.96 ng/mL; an IL-6 secreted by FS-4 fibroblasts, 7.5 ng/ml rhTNF with 4 µg/ml antibody of 2.16 ng/mL.
